# From IntAct's records for PubMed 20739936
# B1: Borealin (Homo sapiens), Q53HL2 (parent)
# chain: MAPRKGSSRVAKTNSLRRRKLASFLKDFDREVEIRIKQIESDRQNLLKEVDNLYNIEILRLPKALREMNWLDYFALGGNKQALEEAATADLDITEINKLTAEAIQTPLKSAKTRKVIQVDEMIVEEEEEEENERKNLQTARVKRCPPSKKRTQSIQGKGKGKRSSRANTVTPAVGRLEVSMVKPTPGLTPRFDSRVFKTPGLRTPAAGERIYNISGNGSPLADSKEIFLTVPVGGGESLRLLASDLQRHSIAQLDPEALGNIKKLSNRLAQICSSIRTHK
# partner: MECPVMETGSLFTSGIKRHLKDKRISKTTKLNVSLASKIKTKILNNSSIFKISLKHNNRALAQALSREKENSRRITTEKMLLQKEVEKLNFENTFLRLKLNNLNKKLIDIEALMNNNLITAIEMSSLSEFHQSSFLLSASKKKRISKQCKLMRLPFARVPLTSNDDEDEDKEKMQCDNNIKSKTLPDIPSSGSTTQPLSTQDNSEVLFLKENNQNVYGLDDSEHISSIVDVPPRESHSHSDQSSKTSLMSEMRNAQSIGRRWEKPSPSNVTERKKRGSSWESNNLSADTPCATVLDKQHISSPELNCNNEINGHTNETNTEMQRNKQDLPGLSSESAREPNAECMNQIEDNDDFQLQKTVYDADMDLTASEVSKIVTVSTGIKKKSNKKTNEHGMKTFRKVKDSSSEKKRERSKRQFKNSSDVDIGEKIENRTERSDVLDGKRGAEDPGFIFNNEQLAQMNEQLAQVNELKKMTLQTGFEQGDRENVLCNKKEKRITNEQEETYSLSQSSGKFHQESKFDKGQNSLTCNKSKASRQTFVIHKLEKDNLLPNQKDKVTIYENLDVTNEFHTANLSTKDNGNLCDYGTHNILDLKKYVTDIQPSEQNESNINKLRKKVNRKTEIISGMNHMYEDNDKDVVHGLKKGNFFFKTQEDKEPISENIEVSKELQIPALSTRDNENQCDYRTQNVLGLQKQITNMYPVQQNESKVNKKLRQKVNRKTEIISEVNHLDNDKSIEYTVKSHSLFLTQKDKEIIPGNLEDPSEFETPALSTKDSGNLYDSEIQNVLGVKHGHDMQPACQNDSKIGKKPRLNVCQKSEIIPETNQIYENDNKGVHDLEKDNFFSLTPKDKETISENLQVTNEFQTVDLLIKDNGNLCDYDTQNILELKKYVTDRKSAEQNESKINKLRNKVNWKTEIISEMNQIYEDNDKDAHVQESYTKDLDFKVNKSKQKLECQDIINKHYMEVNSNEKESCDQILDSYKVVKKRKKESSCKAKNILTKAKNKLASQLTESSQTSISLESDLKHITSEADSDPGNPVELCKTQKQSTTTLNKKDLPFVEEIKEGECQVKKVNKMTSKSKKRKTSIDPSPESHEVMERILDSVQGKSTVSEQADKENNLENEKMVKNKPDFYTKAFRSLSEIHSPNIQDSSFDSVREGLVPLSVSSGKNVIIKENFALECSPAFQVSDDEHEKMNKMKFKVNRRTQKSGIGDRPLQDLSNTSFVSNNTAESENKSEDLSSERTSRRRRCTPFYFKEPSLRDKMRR
# B2: Chromosomal passenger complex protein bir1 (Schizosaccharomyces pombe (strain ATCC 38366 / 972)), O14064 (parent)
# chain: MKPITSSSKRRWNRFRREMCNYSKRLDTFQKKKWPRAKPTPETLATVGFYYNPISESNSEERLDNVTCYMCTKSFYDWEDDDDPLKEHITHSPSCPWAYILSSKNNPNQNPQAAALTKCREQTFVDKVWPYTNRPDYHCEPSVMAASGFVYNPTADAKDAAHCLYCDINLHDWEPDDDPYTEHKRRRADCVFFTWKDPNSLSPTKLSFLSTSNIDPEDLTEDNSILPVSPTRDSTKSHKTLNFSPSRKNNLNARPLTMSLYTNTSEEKDSQPTRAPQSPTKPVLLTAPRRKNKSPKKSKPAVFKPVKPIFSDEDEDDDDLTASQPFSKGICNDSMQVAKKNFTEEIPLKEDEKDNELEHLVSPATSVHTTVSDITGHQSVTDESDEQNNCMSTPPKIEIESKIEEEISVVSKSKEISSSVSSVGKEQNHTEKQVAIETPEQQKVEKEDEHLNLQGSFIEESTKQPISSKPSTSSPDMTDAATGGRVSSSSFRDKILQTNFSPRSTIDSFSNISKKRNSEEANDENDETNLKIPIPEKKRKFQEVLQSKNILVSSTEDSHEPVKVTEDSQTAIHVSKFEDLENKSMESEQSLQLLSESENDDKPLIDLIPLLAIKRKDNLVSGVLEKGKSTSTSKTKFDTSIVDFIEKPKTEISEVLPEEKRKAICDESQTVRVSIDRGVTKTRDVSSPVSDEKSENVNHEEANSGHTVMNVHSSLDPQPIVQPNELESGSYLKDLPDRNVGNSEKVTFQEDDINSPKLQSKNNQTVEAVNTETSDKLQEKEANHELENIEKIEEKLTEVDKVSLSDAFPDQEIKNSRTSVQNGTRSVSKNTPEKETKVDKIDNVSKKDVETSPGSCETSSAFAKTYAEKEVTSINLPSVRKPLDESYYDHSISPFDPLCQSSFLAPQTPVKSKHALPLVEANAPPWEPIDFSSLLESPVPNPVEPNKLSEKELDMTVEQWIKFMYAKCAKEFEEACEEKIEWLLEEGKRAEEYIQNL
# partner: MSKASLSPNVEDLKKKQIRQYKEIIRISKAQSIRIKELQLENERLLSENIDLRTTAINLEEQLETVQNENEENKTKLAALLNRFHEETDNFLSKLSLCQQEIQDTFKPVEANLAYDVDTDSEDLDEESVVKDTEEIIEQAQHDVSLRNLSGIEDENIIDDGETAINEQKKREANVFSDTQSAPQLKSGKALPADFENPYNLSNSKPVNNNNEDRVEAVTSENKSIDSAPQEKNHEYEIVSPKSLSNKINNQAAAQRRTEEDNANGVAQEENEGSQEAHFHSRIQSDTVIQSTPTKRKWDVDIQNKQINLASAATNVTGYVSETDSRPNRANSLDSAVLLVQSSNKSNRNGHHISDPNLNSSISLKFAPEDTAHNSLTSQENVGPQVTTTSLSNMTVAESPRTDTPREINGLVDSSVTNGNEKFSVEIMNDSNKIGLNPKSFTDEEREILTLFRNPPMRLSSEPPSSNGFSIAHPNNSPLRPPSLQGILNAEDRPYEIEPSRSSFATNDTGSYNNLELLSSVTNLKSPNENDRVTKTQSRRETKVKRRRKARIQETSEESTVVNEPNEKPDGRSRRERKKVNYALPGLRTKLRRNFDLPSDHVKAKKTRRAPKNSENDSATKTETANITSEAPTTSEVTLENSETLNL
# B3: Borealin (Homo sapiens), Q53HL2 (parent)
# chain: B1 chain
# Variants of: B1
# Conditions: with sgo2_human SGO2, Q562F6
row,Variant,effect of a mutation on the interaction
1,T106A;T171A;T185A;T189A;T199A;T204A;S219A,disrupting interaction strength

# Variants of: B2
# Conditions: with sgo2_schpo sgo2, O13734
row,Variant,effect of a mutation on the interaction
1,S202A;S229A;S244A;S278A;S294A;T393A;T831A;T908A,disrupting interaction

# Variants of: B2
# Conditions: with sgo2_schpo sgo2, O13734
# Remark: another data set of the same source
row,Variant,effect of a mutation on the interaction
1,S202A;S229A;S244A;S278A;S294A,disrupting interaction

# Variants of: B3
# Conditions: with sgo1_human SGO1, Q5FBB7
# Sequence of sgo1_human SGO1, Q5FBB7 (Q5FBB7 whole entry): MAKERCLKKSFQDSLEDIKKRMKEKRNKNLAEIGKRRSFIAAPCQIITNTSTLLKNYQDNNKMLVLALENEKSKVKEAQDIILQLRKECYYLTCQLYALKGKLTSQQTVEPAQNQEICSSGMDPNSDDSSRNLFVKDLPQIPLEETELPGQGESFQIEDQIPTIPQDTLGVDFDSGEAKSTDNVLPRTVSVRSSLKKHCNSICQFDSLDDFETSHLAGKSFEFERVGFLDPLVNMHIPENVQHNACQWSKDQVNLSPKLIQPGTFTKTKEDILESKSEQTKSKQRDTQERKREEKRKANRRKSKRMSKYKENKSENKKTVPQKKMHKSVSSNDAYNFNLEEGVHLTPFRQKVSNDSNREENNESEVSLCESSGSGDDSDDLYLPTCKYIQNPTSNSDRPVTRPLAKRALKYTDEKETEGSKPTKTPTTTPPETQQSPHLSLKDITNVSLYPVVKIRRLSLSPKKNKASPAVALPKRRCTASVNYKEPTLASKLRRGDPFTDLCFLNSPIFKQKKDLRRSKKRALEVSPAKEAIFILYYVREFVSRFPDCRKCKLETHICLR
row,Variant,effect of a mutation on the interaction
1,T106A;T171A;T185A;T189A;T199A;T204A;S219A,disrupting interaction strength
